The results in this text go back to patent US20230265151A1, “GIP/GLP1 CO-AGONIST COMPOUNDS” (priority 2020, published 2023).

Some results are limits rather than exact numbers.

Holding throughout (assay): cell-based or functional assay
Assay [1] addresses T1, human GIP receptor (human, UniProt P48546 22-466).
T1 sequence (looked up): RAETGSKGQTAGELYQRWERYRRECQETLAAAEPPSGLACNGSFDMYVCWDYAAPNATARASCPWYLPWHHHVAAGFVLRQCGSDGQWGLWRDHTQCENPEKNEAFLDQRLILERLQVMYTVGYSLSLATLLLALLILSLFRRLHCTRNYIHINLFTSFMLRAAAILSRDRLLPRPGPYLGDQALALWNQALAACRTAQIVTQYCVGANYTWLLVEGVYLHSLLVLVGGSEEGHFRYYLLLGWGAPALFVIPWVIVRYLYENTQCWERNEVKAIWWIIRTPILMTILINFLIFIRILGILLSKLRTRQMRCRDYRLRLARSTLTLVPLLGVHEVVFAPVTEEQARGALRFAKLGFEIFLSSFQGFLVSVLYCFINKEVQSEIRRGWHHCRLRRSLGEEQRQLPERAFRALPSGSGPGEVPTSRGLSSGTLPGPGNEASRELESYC

The target in assay [2] is human GLP-1 receptor (human, UniProt P43220 24-463).
In assay [3] the target is human glucagon receptor (human, UniProt P47871 26-477).

B1: Y-Aib-EGT-αMeF(2F)-TSD-Ac5c-SI-αMeL-LD-Orn-K((2-[2-(2-Amino-ethoxy)-ethoxy]-acetyl)2-(γ-Glu)-CO-(CH2)12-CO2H)AQ-Aib-E-αMeF-I-(D-Glu)-αMeY-LIEGGK((2-[2-(2-Amino- … (peptide)
peptide: YXEGTXTSDXSIXLDXKAQXEXIXXLIEGGKSSGAPPPS
modifications: Aib2, αMeF(2F)6, Ac5c10, αMeL13, Orn16, Aib20, αMeF22, D-Glu24, αMeY25; acylated K17, K31 (groups as in name); C-terminal amide
With B1, the results for the “cAMP EC50 (1.0% HSA)” value in assay [1], in assay [2] and in assay [3] were 2.81 nM, 145 nM and greater than 9950 nM, respectively. The “cAMP Emax (1.0% HSA)” value in assay [2] was found to be 113%.

B2: Y-Aib-EGT-αMeF(2F)-TSD-4Pal-SI-αMeL-LD-Orn-K((2-[2-(2-Amino-ethoxy)-ethoxy]-acetyl)2-(γ-Glu)-CO-(CH2)12-CO2H)AQ-Aib-EFI-(D-Glu)-αMeY-LIEGGK((2-[2-(2-Amino-ethox … (peptide)
peptide: YXEGTXTSDXSIXLDXKAQXEFIXXLIEGGKSSGAPPPX
modifications: Aib2, αMeF(2F)6, 4Pal10, αMeL13, Orn16, Aib20, D-Glu24, αMeY25, Orn39; acylated K17, K31 (groups as in name); C-terminal amide
In the case of B2, the “cAMP EC50 (1.0% HSA)” value in assay [1] was 1.34 nM; in assay [2], 70.5 nM; in assay [3] it was greater than 9950 nM. For the same molecule, the “cAMP Emax (1.0% HSA)” value in assay [1] was 93%; in assay [2], 103%.

B3: Y-Aib-EGT-αMeF(2F)-TSD-4Pal-SI-αMeL-LD-Orn-K((2-[2-(2-Amino-ethoxy)-ethoxy]-acetyl)2-(γ-Glu)-CO-(CH2)12-CO2H)GQ-Aib-EFI-(D-Glu)-αMeY-LIEGGK((2-[2-(2-Amino-ethox … (peptide)
peptide: YXEGTXTSDXSIXLDXKGQXEFIXXLIEGGKSSGAPPPS
modifications: Aib2, αMeF(2F)6, 4Pal10, αMeL13, Orn16, Aib20, D-Glu24, αMeY25; acylated K17, K31 (groups as in name); C-terminal amide
B3: the “cAMP EC50 (1.0% HSA)” value in assay [1] was 2.36 nM; in assay [2], 367 nM; in assay [3], greater than 9950 nM. In addition, the “cAMP Emax (1.0% HSA)” value in assay [1] was determined as 96.9%.

B4: Y-Aib-EGT-αMeF(2F)-TSD-4Pal-SI-αMeL-LD-Orn-K((2-[2-(2-Amino-ethoxy)-ethoxy]-acetyl)2-(γ-Glu)-CO-(CH2)12-CO2H)AQ-Aib-GFI-(D-Glu)-αMeY-LIEGGK((2-[2-(2-Amino-ethox … (peptide)
peptide: YXEGTXTSDXSIXLDXKAQXGFIXXLIEGGKSSGAPPPS
modifications: Aib2, αMeF(2F)6, 4Pal10, αMeL13, Orn16, Aib20, D-Glu24, αMeY25; acylated K17, K31 (groups as in name); C-terminal amide
B4: the “cAMP EC50 (1.0% HSA)” value was 0.515 nM in assay [1], 35.5 nM in assay [2] and greater than 9950 nM in assay [3]. Further, the “cAMP Emax (1.0% HSA)” value in assay [1] turned out to be 94.2%.

B5: Y-Aib-EGT-αMeF(2F)-TSD-ChA-SI-αMeL-LD-Orn-K((2-[2-(2-Amino-ethoxy)-ethoxy]-acetyl)2-(γ-Glu)-CO-(CH2)12-CO2H)AQ-Aib-EFI-(D-Glu)-αMeY-LIEGGK((2-[2-(2-Amino-ethoxy … (peptide)
peptide: YXEGTXTSDXSIXLDXKAQXEFIXXLIEGGKSSGAPPPS
modifications: Aib2, αMeF(2F)6, ChA10, αMeL13, Orn16, Aib20, D-Glu24, αMeY25; acylated K17, K31 (groups as in name); C-terminal amide
For the molecule B5, the “cAMP EC50 (1.0% HSA)” value in assay [1] was 4.97 nM; in assay [2], 58.1 nM; in assay [3] it was greater than 9950 nM.

B6: Y-Aib-EGT-αMeF(2F)-TSD-4Pal-SI-αMeL-LD-Orn-K((2-[2-(2-Amino-ethoxy)-ethoxy]-acetyl)2-(γ-Glu)-CO-(CH2)12-CO2H)AQ-Aib-Orn-FI-(D-Glu)-αMeY-LIEGGK((2-[2-(2-Amino-et … (peptide)
peptide: YXEGTXTSDXSIXLDXKAQXXFIXXLIEGGKSSGAPPPS
modifications: Aib2, αMeF(2F)6, 4Pal10, αMeL13, Orn16, Aib20, Orn21, D-Glu24, αMeY25; acylated K17, K31 (groups as in name); C-terminal amide
With B6, the “cAMP EC50 (1.0% HSA)” value was 0.35 nM in assay [1], 11 nM in assay [2] and greater than 9950 nM in assay [3]. Moreover, the “cAMP Emax (1.0% HSA)” value in assay [1] was 81.3%.

B7: Y-Aib-EGT-αMeF(2F)-TSD-4Pal-SI-αMeL-LD-Orn-K((2-[2-(2-Amino-ethoxy)-ethoxy]-acetyl)2-(γ-Glu)-CO-(CH2)12-CO2H)AQ-Aib-EFI-(D-Glu)-αMeY-LI-Orn-GGK((2-[2-(2-Amino-e … (peptide)
peptide: YXEGTXTSDXSIXLDXKAQXEFIXXLIXGGKSSGAPPPS
modifications: Aib2, αMeF(2F)6, 4Pal10, αMeL13, Orn16, Aib20, D-Glu24, αMeY25, Orn28; acylated K17, K31 (groups as in name); C-terminal amide
As for B7, the “cAMP EC50 (1.0% HSA)” value in assay [1] was 0.306 nM; in assay [2], 17.3 nM; in assay [3], greater than 9950 nM. For the same molecule, the “cAMP Emax (1.0% HSA)” value in assay [1] is 87.5%; in assay [2] it was 112%.

B8: Y-Aib-EGT-αMeF(2F)-TSD-ChG-SI-αMeL-LD-Orn-K((2-[2-(2-Amino-ethoxy)-ethoxy]-acetyl)2-(γ-Glu)-CO-(CH2)12-CO2H)AQ-Aib-EFI-(D-Glu)-αMeY-LIEGGK((2-[2-(2-Amino-ethoxy … (peptide)
peptide: YXEGTXTSDXSIXLDXKAQXEFIXXLIEGGKSSGAPPPS
modifications: Aib2, αMeF(2F)6, ChG10, αMeL13, Orn16, Aib20, D-Glu24, αMeY25; acylated K17, K31 (groups as in name); C-terminal amide
As for B8, the “cAMP EC50 (1.0% HSA)” value in assay [1] is 5.49 nM; in assay [2] it was 227 nM; in assay [3], greater than 9950 nM.

B9: Y-Aib-EGT-αMeF(2F)-TSD-4Pal-SI-αMeL-LD-Orn-K((2-[2-(2-Amino-ethoxy)-ethoxy]-acetyl)2-(γ-Glu)-CO-(CH2)12-CO2H)AQ-Aib-E-2Nal-I-(D-Glu)-αMeY-LIEGGK((2-[2-(2-Amino- … (peptide)
peptide: YXEGTXTSDXSIXLDXKAQXEXIXXLIEGGKSSGAPPPS
modifications: Aib2, αMeF(2F)6, 4Pal10, αMeL13, Orn16, Aib20, 2Nal22, D-Glu24, αMeY25; acylated K17, K31 (groups as in name); C-terminal amide
For the molecule B9, the “cAMP EC50 (1.0% HSA)” value is 2.49 nM in assay [1], 20 nM in assay [2] and greater than 9950 nM in assay [3]. The “cAMP Emax (1.0% HSA)” value in assay [2] came to 81.1%.

B10: Y-Aib-EGT-αMeF(2F)-TSD-4Pal-SI-αMeL-LD-Orn-K((2-[2-(2-Amino-ethoxy)-ethoxy]-acetyl)2-(γ-Glu)-CO-(CH2)12-CO2H)AQ-Aib-EFIG-αMeY-LIEGGK((2-[2-(2-Amino-ethoxy)-etho … (peptide)
peptide: YXEGTXTSDXSIXLDXKAQXEFIGXLIEGGKSSGAPPPS
modifications: Aib2, αMeF(2F)6, 4Pal10, αMeL13, Orn16, Aib20, αMeY25; acylated K17, K31 (groups as in name); C-terminal amide
For the molecule B10, the “cAMP EC50 (1.0% HSA)” value in assay [1] is 0.52 nM; in assay [2], 12.3 nM; in assay [3], greater than 9950 nM. The “cAMP Emax (1.0% HSA)” value was 95.9% in assay [1] and 95.8% in assay [2].

B11: Y-Aib-EGT-αMeF(2F)-TSD-Ac4c-SI-αMeL-LD-Orn-K((2-[2-(2-Amino-ethoxy)-ethoxy]-acetyl)2-(γ-Glu)-CO-(CH2)12-CO2H)AQ-Aib-EFI-(D-Glu)-αMeY-LIEGGK((2-[2-(2-Amino-ethox … (peptide)
peptide: YXEGTXTSDXSIXLDXKAQXEFIXXLIEGGKSSGAPPPS
modifications: Aib2, αMeF(2F)6, Ac4c10, αMeL13, Orn16, Aib20, D-Glu24, αMeY25; acylated K17, K31 (groups as in name); C-terminal amide
Turning to B11, the “cAMP EC50 (1.0% HSA)” value in assay [1] is 4.68 nM; in assay [2], 8.84 nM; in assay [3], greater than 9950 nM. Further, in assay [2], the “cAMP Emax (1.0% HSA)” value was found to be 84%.

B12: Y-Aib-EGT-αMeF(2F)-TSD-4Pal-GI-αMeL-LD-Orn-K((2-[2-(2-Amino-ethoxy)-ethoxy]-acetyl)2-(γ-Glu)-CO-(CH2)12-CO2H)AQ-Aib-EFI-(D-Glu)-αMeY-LIEGGK((2-[2-(2-Amino-ethox … (peptide)
peptide: YXEGTXTSDXGIXLDXKAQXEFIXXLIEGGKSSGAPPPS
modifications: Aib2, αMeF(2F)6, 4Pal10, αMeL13, Orn16, Aib20, D-Glu24, αMeY25; acylated K17, K31 (groups as in name); C-terminal amide
For the molecule B12, the “cAMP EC50 (1.0% HSA)” value was 2.61 nM in assay [1], 402 nM in assay [2] and greater than 9950 nM in assay [3]. Also, the “cAMP Emax (1.0% HSA)” value in assay [1] turned out to be 98.3%; in assay [2], 123%.
